# Experimental data: patent publication US20100239597A1 (NORTHWESTERN UNIVERSITY, published 2010)
# B1: Hu20C2A3 (veneered version of clone A3, IgG2m4 isotype) (antibody, V domains shown)
# VH: QVTLKESGPGLLKPTQTLTLTCTLSGFSLSTSGMGVGWFRQPPGKGLEWLAHIWWDDDKSYNPSLKSRLTISKDTSKNQVVLTITNVDPVDTATYYCARRQLGTRGTDAMDYWGQGTTVTVSS
# VL: DVVMTQTPLSLPVTPGQPASISCRSSQSILHSNGNTYLEWYLQKPGQSPQLLIYKVSNRFSGVPDRFSGSGSGTDFTLKISRVEAEDVGVYYCLQTTRVPLTFGQGTKLEIKR
# notes: To be checked against the listing; also called Hu20C2A3 IgG2m4
# Key:
# Aβ40 monomer [1] = biological target: T1, Aβ40 monomer (UniProt P05067 672-711); test: titration ELISA on Aβ40 monomer, A450 nm; Hu20C2A3 produced in Pichia
# T1 construct: domain: Aβ(1-40); also called Aβ monomer; amyloid beta (1-40) peptide
# [2] = biological target: T2, Aβ-derived diffusible ligands (ADDLs) (UniProt P05067 672-713); test: titration ELISA on captured ADDL, A450 nm; Hu20C2A3 produced in Pichia
# T2 construct: domain: Aβ1-42
# Method: (§1) Affinity maturation was carried out to improve affinity and improve preferential binding to ADDL. To evaluate ADDL binding affinity of the humanized antibodies, BIACORE™ and titration ELISAs were conducted as disclosed herein. Briefly, Streptavidin-coated, 96-well microtiter plates (Sigma, St. Louis, Mo.) were coated with 10% biotinylated ADDL antigen (1 μM). A series of 2-fold dilutions of purified antibody, starting at 500 ng/mL was added to the ADDL captured plates and the plates were incubated for 2 hours at 25° C. After washing five times with PBS solution using a plate washer (Bio-Tek, Winooski, Va.), polyclonal goat anti-human kappa light chain antibody (Biomeda, Foster City, Calif.) was added at a 1/2000 dilution in 3% non-fat milk blocker and incubated at room temperature for 1 hour. A rabbit anti-goat IgG (H+L) HRP-conjugated (Bethyl Laboratories, Inc., Montgomery, Tex.) detection antibody was then added at a 1/2000 dilution in blocking solution and incubated for 1 hour at room temperature. After washing with PBS, HRP substrate, 3,3′,5′5-tetramethylbenzidine (ready-to-use TMB; Sigma, St. Louis, Mo.) was added and the reaction was stopped after 10 minutes with 0.5 N H₂SO₄. Absorbance at wavelength of 450 nm was read in a plate reader (model VICTOR V; Perkin Elmer, Boston, Mass.) and data were processed using EXCEL® work sheet.
# Aβ40 monomer [3] = biological target: T1, Aβ40 monomer; test: titration ELISA on Aβ40 monomer, A450 nm; Hu20C2A3 produced in CHO
# [4] = biological target: T2, Aβ-derived diffusible ligands (ADDLs); test: titration ELISA on captured ADDL, A450 nm; Hu20C2A3 produced in CHO
# Method: as §1
binder,measurement,setting,value
B1,EC50 (read off the curve),Aβ40 monomer [1],~0.04 µg/mL
same,EC50 (read off the curve),[2],~0.009 µg/mL
same,EC50 (read off the curve),Aβ40 monomer [3],~0.04 µg/mL
same,EC50 (read off the curve),[4],~0.008 µg/mL
